Legend:
[1] = biological target: T1, Thermotoga maritima TsaDB dimer variant (Thermotoga maritima, UniProt Q9WXZ2 1-327; Q9WZX7 2-206, E20A | D21A | L22A | E24A | S26A | Y27A | T28A | E30A | K31A); test: native gel or EMSA; native agarose-glycine gel (1.6%), 15 μg TsaD2B2 or variant and two-fold TsaE; gel and samples with 1 mM ATP and 2 mM MgCl2; conditions: both partners purified
T1 construct: TsaD, Thermotoga maritima, UniProt Q9WXZ2; TsaB, Thermotoga maritima, UniProt Q9WZX7; Preformed complex of m11 and m13; also called T. maritima TsaDB; TmTsaDB; source: E. coli BL21 (DE3) or Rosetta pLysS, co-expressed, purified (Ni-NTA, SEC); copies: 1 + 1

[2] = biological target: the molecule itself; test: SEC; co-purified TsaD–TsaB complexes and variants; elution profiles compared with one another (tetramer against dimer); Superdex 200, after Ni-NTA

T1 sequence (Q9WXZ2 whole entry, stated change not applied, one chain of several): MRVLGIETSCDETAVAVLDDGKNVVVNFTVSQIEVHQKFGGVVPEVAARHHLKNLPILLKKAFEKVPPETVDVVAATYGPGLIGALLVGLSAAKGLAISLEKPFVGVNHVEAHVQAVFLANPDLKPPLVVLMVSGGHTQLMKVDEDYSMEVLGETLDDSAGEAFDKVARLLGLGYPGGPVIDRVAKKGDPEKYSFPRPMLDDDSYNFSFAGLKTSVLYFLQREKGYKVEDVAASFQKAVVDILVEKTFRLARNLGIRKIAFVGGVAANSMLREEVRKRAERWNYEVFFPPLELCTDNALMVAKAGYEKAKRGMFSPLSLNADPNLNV

Binder | binding result [1] | binding result [2]
Aquifex aeolicus TsaE (enzyme, UniProt O67011 1-133, looked up, TsaE, Aquifex aeolicus, UniProt O67011; Monomer by SEC; also called AaTsaE; YjeE; source: E. coli BL21 (DE3) or Rosetta pLysS, purified (Ni-NTA, SEC)) MELLKEVILESEEDTYKLAEEIAQLLKGSEVICLRGTLGAGKTTFVKALAKALKVKNPSAVRSPTFTLVNEYETDKGKLIHIDLYRVPDFDYSEFIGEGILAVEWEERDKPCDIILEIEILDENKRKVRIYRK | binds | 
Thermotoga maritima TsaB (natural protein, TsaB, Thermotoga maritima, UniProt Q9WZX7; also called TmTsaB; source: E. coli BL21 (DE3) or Rosetta pLysS, co-expressed with TsaD (pET21a–BC14), purified (Ni-NTA, SEC)) NVLALDTSQRIRIGLRKGEDLFEISYTGEKKHAEILPVVVKKLLDELDLKVKDLDVVGVGIGPGGLTGLRVGIATVVGLVSPYDIPVAPLNSFEMTAKSCPADGVVLVARRARKGYHYCAVYLKDKGLNPLKEPSVVSDEELEEITKEFSPKIVLKDDLLISPAVLVEESERLFREKKTIHYYEIEPLYLQKSIAELNWEKKKRG |  | binds

Reference: article PMC11648230, “Structure–function analysis of tRNA t^6A-catalysis, assembly, and thermostability of Aquifex aeolicus TsaD2B2 tetramer in complex with TsaE” (The Journal of Biological Chemistry, 2024)
